In patent US20190352639A1 (University of Washington, published 2019):

What was measured:
[1] = molecular target: the molecule itself; assay: size exclusion chromatography and negative stain electron microscopy, self-assembly
[2] = molecular target: the molecule itself; assay: electron cryo-tomography of vesicles from transfected HEK293T cells, self-assembly

B1: Myr-I3-01-myc-p6 (designed binder)
chain: MGARASGSKSGSGSDSGSKMEELFKKHKIVAVLRANSVEEAKKKALAVFLGGVHLIEITFTVPDADTVIKELSFLKEMGAIIGAGTVTSVEQCRKAVESGAEFIVSPHLDEEISQFCKEKGVFYMPGVMTPTELVKAMKLGHTILKLFPGEVVGPQFVKAMKGPFPNVKFVPTGGVNLDNVCEWFKAGVLAVGVGSALVKGTPVEVAEKAKAFVEKIRGCTEQKLISEEDLQSRPEPTAPPEESFRSGVETTTPPQKQEPIDKELYPLTSLRSLFGNDPSSQ
modifications: N-terminal myristoylation motif (6 N-terminal residues of HIV Gag); myristoylated in mammalian cells, not in E. coli
notes: Fusion of the HIV Gag N-terminal six residues, a linker, I3-01, a myc tag and the HIV Gag p6 domain; also called Myr-I3-01-p6
**Q.** Does B1 bind [1]?
**A.** binds

B2: EPN-01 (designed binder)
chain: MGARASGSKSGSGSDSGSKIEELFKKHKIVAVLRANSVEEAKKKALAVFLGGVHLIEITFTVPDADTVIKELSFLKEMGAIIGAGTVTSVEQCRKAVESGAEFIVSPHLDEEISQFCKEKGVFYMPGVMTPTELVKAMKLGHTILKLFPGEVVGPQFVKAMKGPFPNVKFVPTGGVNLDNVCEWFKAGVLAVGVGSALVKGTPVEVAEKAKAFVEKIRGCTEQKLISEEDLQSRPEPTAPPEESFRSGVETTTPPQKQEPIDKELYPLTSLRSLFGNDPSSQ
modifications: N-terminal myristoylation motif
notes: Myr-I3-01-myc-p6 with the methionine at the N-terminal end of the I3-01 O domain mutated to isoleucine
**Q.** Does B2 bind [2]?
**A.** binds
